This is an account of results in US20260327578A1, “TRANSGLUTAMINASES AND USES THEREOF” (CURIE CO. INC., priority 2023, published 2026).

Data set [1] has as its system N,N-dimethylcasein. As to the kind of experiment: Productivity: total product formed after 24 hours (protein functionalization assay). In kind it is biochemical. On the set-up: key: −: a reduction in activity; +: an improvement between 1.2 and 2-fold; ++: an improvement between 2 and 5-fold; +++: an improvement greater than 5-fold. As to conditions: improvement relative to wild-type Tgase (SEQ ID NO: 2); total product after 24 h. How it is done:
(§1) Enzymatic “productivity” is a measure of product formation or substrate disappearance over time, at a prescribed temperature under specified reaction conditions. It is the measure both the durability and reaction yield of the enzyme variant. In this instance, productivity is defined as total product formed over 24-hours at a constant substrate concentration when the enzyme is the rate limiting factor. The time is defined as 24 hours, which represents approaching or surpassing burnout, denaturation, or self-reaction of the enzyme variant. In other words, variants with higher productivity deliver a higher product yield in 24-hours than variants with lower productivity produce in the same period of time. “Rate” refers to the initial rate for an enzymatic reaction, at a prescribed temperature under specified reaction conditions. The enzyme produces product at an initial rate that is approximately linear for a short period after the start of the reaction. When concentrations of enzyme and substrate are the same across the sample set, initial rates between enzyme variants can be compared. In this instance, the linear range for production of product occurs in one hour. Enzyme variants with faster initial rates deliver a higher product yield in one hour than variants with slower initial rates produce at the same time-period. In some cases, improvements to initial rates also deliver a more productive variant. In some cases, improvements to initial rates result in faster decay of the enzyme variant reducing overall enzymatic productivity. Productivity and rate may be assessed as described in Example 2.
(§2) Table 6 depicts variants of Streptomyces mobaraensis Tgase and improvement to productivity and/or rate relative to wild-type Tgase (SEQ ID NO. 2) as determined in Example 3. Numbering of amino acid positions is in reference to the mature S. mobaraensis Tgase sequence depicted in SEQ ID NO. 2. A “−” indicates a reduction in activity. A “+” indicates an improvement between 1.2 and 2-fold. A “++” indicates an improvement between 2 and 5-fold. A “+++” indicates an improvement greater than 5-fold.
To evaluate productivity, total product formed was measured after 24-hours of incubation, using the assay described in Example 4B. The time is defined as 24 hours which represents approaching or surpassing burnout, denaturation, or self-reaction of the enzyme variant.
(§3) Protein functionalization by Tgase variants was determined by the fluorogenic labeling of casein using monodansylcadaverine (e.g., a commercially available kit such as the Transglutaminase Fluorogenic Activity Assay Kit, T036, Zedira, Germany). Tgase activity was monitored by measuring fluorescence (excitation wavelength 332 nm; emission wavelength 500 nm) using a BioTek Synergy H1 microplate reader. Transglutaminase-catalyzed covalent coupling (crosslinking) of monodansylcadaverine with N,N-dimethylcasein produces a product that causes a shift in intensity and wavelength of fluorescence of the dansyl group now linked to the casein. The relative transglutaminase activity is shown by increase of fluorescence intensity over time. Enzyme variant loading was optimized based on expression levels, ensuring enzyme was the rate limiting factor. Briefly, cell-free reactions (set up as described in Example 2A) were first diluted 10-fold using phosphate buffer, pH 7.4, and a 5 microliter aliquot was analyzed.

Data set [2] deals with N,N-dimethylcasein. As to the kind of experiment: Rate of product formation over 60 minutes (protein functionalization assay). In kind it is biochemical. On the set-up: key: −: a reduction in activity; +: an improvement between 1.2 and 2-fold; ++: an improvement between 2 and 5-fold; +++: an improvement greater than 5-fold. The settings on record: improvement relative to wild-type Tgase (SEQ ID NO: 2); initial rate over 60 min. How it is done: as §1, §2
Rate was assessed by measuring the rate of product formation over 60 minutes of incubation using a kinetic method to take scans every 60 seconds to determine product formation, using reaction conditions as described in Example 4B. The enzyme produces product at an initial rate that is approximately linear for the first one hour of the reaction. The concentrations of enzyme and substrate are the same across the sample set for each enzyme variant. Enzyme variants with faster initial rates deliver a higher product yield in one hour than variants with slower initial rates produce at the same time-period.
as §3

B1: A12: Tgase variant S2P R15T Q50S Q74A K91H Q124L K151R K152R N282M G283A H289I relative to SEQ ID NO: 2 (protein, UniProt P81453 77-407, looked up, variant S2P R15T Q50S Q74A K91H Q124L K151R K152R N282M G283A H289I)
Protein-glutamine …: DPDDRVTPPAEPLDTMPDPYRPSYGRAETVVNNYIRKWQQVYSHRDGRKSQMTEEQREWLSYGCVGVTWVNSGAYPTNRLAFASFDEDRFHNELKNGRPRSGETRAEFEGRVAKESFDEEKGFLRAREVASVMNRALENAHDESAYLDNLRRELANGNDALRNEDARSPFYSALRNTPSFKERNGGNHDPSRMKAVIYSKHFWSGQDRSSSADKRKYGDPDAFRPAPGTGLVDMSRDRNIPRSPTSPGEGFVNFDYGWFGAQTEADADKTVWTHGNHYHAPMASLGAMIVYESKFRNWSEGYSDFDRGAYVITFIPKSWNTAPDKVKQGWP
Regarding B1, the Productivity result in the data set on N,N-dimethylcasein [1] is “+ (an improvement between 1.2 and 2-fold)”. The Rate result in the data set on N,N-dimethylcasein [2] was “+ (an improvement between 1.2 and 2-fold)”.

B2: A16: Tgase variant S2P D18T Q50S Q74A K91H Q124L S131R V132L K151R K152R N282M G283A relative to SEQ ID NO: 2 (protein, UniProt P81453 77-407, looked up, variant S2P D18T Q50S Q74A K91H Q124L S131R V132L K151R K152R N282M G283A)
Protein-glutamine …: DPDDRVTPPAEPLDRMPTPYRPSYGRAETVVNNYIRKWQQVYSHRDGRKSQMTEEQREWLSYGCVGVTWVNSGAYPTNRLAFASFDEDRFHNELKNGRPRSGETRAEFEGRVAKESFDEEKGFLRAREVARLMNRALENAHDESAYLDNLRRELANGNDALRNEDARSPFYSALRNTPSFKERNGGNHDPSRMKAVIYSKHFWSGQDRSSSADKRKYGDPDAFRPAPGTGLVDMSRDRNIPRSPTSPGEGFVNFDYGWFGAQTEADADKTVWTHGNHYHAPMASLGAMHVYESKFRNWSEGYSDFDRGAYVITFIPKSWNTAPDKVKQGWP
For B2, the Productivity result in the data set on N,N-dimethylcasein [1] is recorded as “−”. In addition, the Rate entry in the data set on N,N-dimethylcasein [2] was “++ (an improvement between 2 and 5-fold)”.

B3: A15: Tgase variant S2P Q50S Q74A K91H K95E Q124L K151R K152R N282M G283A relative to SEQ ID NO: 2 (protein, UniProt P81453 77-407, looked up, variant S2P Q50S Q74A K91H K95E Q124L K151R K152R N282M G283A)
Protein-glutamine …: DPDDRVTPPAEPLDRMPDPYRPSYGRAETVVNNYIRKWQQVYSHRDGRKSQMTEEQREWLSYGCVGVTWVNSGAYPTNRLAFASFDEDRFHNELENGRPRSGETRAEFEGRVAKESFDEEKGFLRAREVASVMNRALENAHDESAYLDNLRRELANGNDALRNEDARSPFYSALRNTPSFKERNGGNHDPSRMKAVIYSKHFWSGQDRSSSADKRKYGDPDAFRPAPGTGLVDMSRDRNIPRSPTSPGEGFVNFDYGWFGAQTEADADKTVWTHGNHYHAPMASLGAMHVYESKFRNWSEGYSDFDRGAYVITFIPKSWNTAPDKVKQGWP
In the case of B3, the Productivity entry in the data set on N,N-dimethylcasein [1] is “−”. In the data set with N,N-dimethylcasein [2], the Rate result was “+ (an improvement between 1.2 and 2-fold)”.

B4: A14: Tgase variant S2P Q50S Q51E Q74A K91H Q124L Y146F K151R K152R N282M G283A H289I S299V relative to SEQ ID NO: 2 (protein, UniProt P81453 77-407, looked up, variant S2P Q50S Q51E Q74A K91H Q124L Y146F K151R K152R N282M G283A H289I S299V)
Protein-glutamine …: DPDDRVTPPAEPLDRMPDPYRPSYGRAETVVNNYIRKWQQVYSHRDGRKSEMTEEQREWLSYGCVGVTWVNSGAYPTNRLAFASFDEDRFHNELKNGRPRSGETRAEFEGRVAKESFDEEKGFLRAREVASVMNRALENAHDESAFLDNLRRELANGNDALRNEDARSPFYSALRNTPSFKERNGGNHDPSRMKAVIYSKHFWSGQDRSSSADKRKYGDPDAFRPAPGTGLVDMSRDRNIPRSPTSPGEGFVNFDYGWFGAQTEADADKTVWTHGNHYHAPMASLGAMIVYESKFRNWVEGYSDFDRGAYVITFIPKSWNTAPDKVKQGWP
For B4, the Productivity result in the data set on N,N-dimethylcasein [1] is “+ (an improvement between 1.2 and 2-fold)”. Also, in the data set on N,N-dimethylcasein [2], the Rate entry is on record as “−”.

B5: A13: Tgase variant S2P Q50S Q51E Q74A K91H Q124L K151R K152R F170I N282M G283A H289I S299V relative to SEQ ID NO: 2 (protein, UniProt P81453 77-407, looked up, variant S2P Q50S Q51E Q74A K91H Q124L K151R K152R F170I N282M G283A H289I S299V)
Protein-glutamine …: DPDDRVTPPAEPLDRMPDPYRPSYGRAETVVNNYIRKWQQVYSHRDGRKSEMTEEQREWLSYGCVGVTWVNSGAYPTNRLAFASFDEDRFHNELKNGRPRSGETRAEFEGRVAKESFDEEKGFLRAREVASVMNRALENAHDESAYLDNLRRELANGNDALRNEDARSPIYSALRNTPSFKERNGGNHDPSRMKAVIYSKHFWSGQDRSSSADKRKYGDPDAFRPAPGTGLVDMSRDRNIPRSPTSPGEGFVNFDYGWFGAQTEADADKTVWTHGNHYHAPMASLGAMIVYESKFRNWVEGYSDFDRGAYVITFIPKSWNTAPDKVKQGWP
With B5, the Productivity entry in the data set with N,N-dimethylcasein [1] was “+ (an improvement between 1.2 and 2-fold)”. In addition, the Rate entry in the data set with N,N-dimethylcasein [2] was “+ (an improvement between 1.2 and 2-fold)”.

B6: A17: Tgase variant S2P D14N Q50S Q74A K91H Q124L K151R K152R N282M G283A relative to SEQ ID NO: 2 (protein, UniProt P81453 77-407, looked up, variant S2P D14N Q50S Q74A K91H Q124L K151R K152R N282M G283A)
Protein-glutamine …: DPDDRVTPPAEPLNRMPDPYRPSYGRAETVVNNYIRKWQQVYSHRDGRKSQMTEEQREWLSYGCVGVTWVNSGAYPTNRLAFASFDEDRFHNELKNGRPRSGETRAEFEGRVAKESFDEEKGFLRAREVASVMNRALENAHDESAYLDNLRRELANGNDALRNEDARSPFYSALRNTPSFKERNGGNHDPSRMKAVIYSKHFWSGQDRSSSADKRKYGDPDAFRPAPGTGLVDMSRDRNIPRSPTSPGEGFVNFDYGWFGAQTEADADKTVWTHGNHYHAPMASLGAMHVYESKFRNWSEGYSDFDRGAYVITFIPKSWNTAPDKVKQGWP
With B6, the Productivity result with N,N-dimethylcasein [1] was “−”. Further, the Rate result in the data set with N,N-dimethylcasein [2] is “+ (an improvement between 1.2 and 2-fold)”.

B7: A1: Tgase variant S2P Q50S Q74A K91H Q124L K151R K152R N282R relative to SEQ ID NO: 2 (protein, UniProt P81453 77-407, looked up, variant S2P Q50S Q74A K91H Q124L K151R K152R N282R)
Protein-glutamine …: DPDDRVTPPAEPLDRMPDPYRPSYGRAETVVNNYIRKWQQVYSHRDGRKSQMTEEQREWLSYGCVGVTWVNSGAYPTNRLAFASFDEDRFHNELKNGRPRSGETRAEFEGRVAKESFDEEKGFLRAREVASVMNRALENAHDESAYLDNLRRELANGNDALRNEDARSPFYSALRNTPSFKERNGGNHDPSRMKAVIYSKHFWSGQDRSSSADKRKYGDPDAFRPAPGTGLVDMSRDRNIPRSPTSPGEGFVNFDYGWFGAQTEADADKTVWTHGNHYHAPRGSLGAMHVYESKFRNWSEGYSDFDRGAYVITFIPKSWNTAPDKVKQGWP
In the case of B7, the Productivity result in the data set on N,N-dimethylcasein [1] was “+ (an improvement between 1.2 and 2-fold)”. In the data set with N,N-dimethylcasein [2], the Rate result is “−”.

B8: A18: Tgase variant S2P Q50S Q51A Q74A K91H Q124L K151R K152R N282M G283A H289I relative to SEQ ID NO: 2 (protein, UniProt P81453 77-407, looked up, variant S2P Q50S Q51A Q74A K91H Q124L K151R K152R N282M G283A H289I)
Protein-glutamine …: DPDDRVTPPAEPLDRMPDPYRPSYGRAETVVNNYIRKWQQVYSHRDGRKSAMTEEQREWLSYGCVGVTWVNSGAYPTNRLAFASFDEDRFHNELKNGRPRSGETRAEFEGRVAKESFDEEKGFLRAREVASVMNRALENAHDESAYLDNLRRELANGNDALRNEDARSPFYSALRNTPSFKERNGGNHDPSRMKAVIYSKHFWSGQDRSSSADKRKYGDPDAFRPAPGTGLVDMSRDRNIPRSPTSPGEGFVNFDYGWFGAQTEADADKTVWTHGNHYHAPMASLGAMIVYESKFRNWSEGYSDFDRGAYVITFIPKSWNTAPDKVKQGWP
B8: the Productivity entry in the data set with N,N-dimethylcasein [1] is given as “−”. For the same molecule, the Rate entry with N,N-dimethylcasein [2] was “+ (an improvement between 1.2 and 2-fold)”.
